Molecular target: GST–CDK2/His–CyclinA complex (human | bovine, UniProt P24941 1-298; P30274 1-430)
Experiment: co-IP

Sequence of GST–CDK2/His–CyclinA complex (P30274 whole entry, one chain of several): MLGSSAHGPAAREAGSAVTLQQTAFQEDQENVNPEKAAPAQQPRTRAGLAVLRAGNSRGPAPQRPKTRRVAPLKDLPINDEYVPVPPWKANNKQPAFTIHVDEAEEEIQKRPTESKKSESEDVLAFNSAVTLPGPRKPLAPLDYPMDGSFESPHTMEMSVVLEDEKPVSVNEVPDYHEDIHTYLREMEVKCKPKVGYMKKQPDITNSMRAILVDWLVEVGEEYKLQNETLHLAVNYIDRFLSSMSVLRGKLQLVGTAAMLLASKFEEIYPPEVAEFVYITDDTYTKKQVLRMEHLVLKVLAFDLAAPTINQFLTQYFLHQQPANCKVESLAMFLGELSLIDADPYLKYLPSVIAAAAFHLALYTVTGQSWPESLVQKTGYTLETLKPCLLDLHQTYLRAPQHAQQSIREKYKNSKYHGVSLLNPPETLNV

B1: GST–p57 (mouse, wild type) phosphorylated in vitro by activated p38 SAPK (natural protein)
chain: MERLASSDTFPVIARSSACRSLFGPVDHEELGRELRMRLAELNAEDQNRWDFNFQQDVPLRGPGRLQWMEVDSESVPAFYRETVQVGRCRLQLGPRPPPVAVAVIPRSGPPAGEAPDGLEEAPEQPPSAPASAVVAEPTPPATPAPASDLTSDPIPEVTLVATSDPTPDPIPDANPDVATRDGEEQVPEQVSEQGEESGAEPGDELGTEPVSEQGEEQGAEPVEEKDEEPEEEQGAEPVEEQGAEPVEEQNGEPVEEQDENQEQRGQELKDQPLSGIPGRPAPGTAAANANDFFAKRKRTAQENKASNDVPPGCPSPNVAPGVGAVEQTPRKRLR
modifications: phosphothreonine at T143 (phosphorylated in vitro by activated GST–p38 SAPK)
- fold increase of binding against non-phosphorylated GST–p57: ~4 fold
